Assay: label from the status in PepcDB records

Sequence	protein production
MEFFAVSLDSHVFSHIKEIFLYNHNQKFYVVMMKHDDVLMILAAAALMFSFSWVHGMLLVLPLLAIPQLSSRTLKWGVLVLAVFVALLILQPMTRAVGLNISDELFRLVLLLLFTFMVALLIERIEKVRSLRELNLELKKQAEKLEDANKELEAFAYSVSHDLRVPLRAIDGFSRILVEDYEDKLDDEGVRILGIIRDNTRKMGQLIDDILLLSRAGRQEMNLAMLDMRELAESTYRELASQEEGRSIEFSVADLPPAMADRALMGQVMGNLLSNAIKFTRDRDPAVIEVGYMDGGDEHTYYVKDNGAGFDMKYASKLFGLFQRLHSQEEFEGTGVGLSIVQRIIKRHGGRVWGEGKVDGGATIYFTLPKVVK	failed
MATEIGSPPRFFHMPRFQHQAPRQLFYKRPDFAQQQAMQQLTFDGKRMRKAVNRKTIDYNPSVIKYLENRIWQRDQRDMRAIQPDAGYYNDLVPPIGMLNNPMNAVTTKFVRTSTNKVKCPVFVVRWTPEGRRLVTGASSGEFTLWNGLTFNFETILQAHDSPVRAMTWSHNDMWMLTADHGGYVKYWQSNMNNVKMFQAHKEAIREASFSPTDNKFATCSDDGTVRIWDFLRCHEERILRDTCFHHCRCYFLSVKR	failed
MTEKTIRVLVAGLGNMGRSHALAYHNNPGFEIVGLVNRSTPELAAELQGYTIHPDFMTALAELKPDLCSINTYSDSHADYAVAAFEAGCDVFVEKPLATTVADAERVVAAAGKAGRKLVIGYILRHHPSWMKLIGEARKLGPPYVFRMNLNQQSSGPTWATHKSLMRTTSPIVDCGVHYVDVMCQITDARAVEVRGMGLRMSDEIAADMYNYGHLQVLFEDGSVGWYEAGWGPMISETAFFVKDVMSPKGAVSIVMDPNAKSDDIDTHTKTSVIRLHTAETGPDGKFIRPDQDMTMEGEPGHQALCDLEQAFMLRAIREDLDLDRHMADAVASLRICLAADESVRTGQPVRL	failed
MAERTSDPAANDRFYFRQLLSGRDFAGADPIAQQMRNFAYFIGDRETGEAVVVDPAYAADELAAALEADGMRLAGVLVTHHHPDHVGGSMMGFTLKGVAELLEHRSVPVHVNSHEADWVSQVTGIARSELSAHEHGDTISVGAIDIELLHTPGHTPGSQCFLVDGRLVAGDTLFLEGCGRTDFPGGNVDDMFRSLQALAKLPGDPTVYPGHWYSAEPSAPLEEVKRSNYVYRASNLDQWRMLMGG	failed
MVKHARVRAPELVGRGGWINTGDRELSLAALRGRIVVLDFWTFCCVNCLHALDELRELEERHRDTVVIVGVHSPKFTHEAEHRAVLDAVERYSVEHPVLDDPERVTWRQYAVRAWPTLAVIDPEGYVVAQYTGEGHAHAIQRLVEELEARHAAKGTLRRGDAPYVAPEPEPTTLRFPGKAVSLPSGTFLVSDTTRHQLVELAEDGESPVRRIGSGRRGFTDGPADRAEFSEPQGLALLGDGSVVVADTVNHALRRYEPVTGEVTTLAGTGRQHRPGEPSRGAARAVSLSSPWDVALWNDRVWIAMAGVHQLWAYDPRDGSVTVTAGTGNEGLVDGPGPEAWFAQPSGLSATDDRLWVADSETSALRWVELDGTVRTAVGTGLFDFGHRDGPAARALLQHPLGVAALPDGSVVVADTYNHALRRYAPPTGEVSTLATDLREPSDAVVVGGDVLVVESARHRLTRLRLPHDALGTGSGEAVLRGTTEAAPGTLRLEVAFRALAGQKLDQRYGPATRLLVSATPPELLRAGEGAGTELSRSLDLDPSVPEGMLHVSATAASCDDDLDVPYPACHVHQKDWKIPVRLVEGASDRLPLVLTGVDTA	failed
MTQKEISIIHPRPSSIVAALYTLRDLNVDVAILHGPPGCSFKHARLLEEDGIHVVTTGLDENGFVFGGHDKLVQVINKSIELFNPKILGVVGTCASMIIGEEMHEAVLEANPDIPVIEVEVHAGYHNNTKGVIFALESALDAGIIDHKEFERQEYLLQKATEVEKKFGAASKEYLAPSRGDVKYKVAKRLVELLKEGKKGLVIMNAKKETGYMFADITLAVNEVAEALGKKENLVNMANIDPELGLPRVRQHAEYIMRDFKAHGVEIHEIIGGMDEYPVAGEKVSELIKEKYSDYDFAVITGVPHAVPMENIGHMELISITNGPRQVLPLKEMGHEHVMVEIDLHPKTLGVSQIVESEFGATLREVAKEA	failed
MGHHHHHHSHMAILIAFMKQRRMGLNDFIQKIANNSYACKHPEVQSILKISQPQEPELMNANPSPPPSPSQQINLGPSSNPHAKPSDFHFL	failed
DPDEDSDNSAIYVQGLNDSVTLDDLADFFKQCGVVKMNKRTGQPMIHIYLDKETGKPKGDATVSYEDPPTAKAAVEWFDGKDFQGSKLKVSLARKKPPMN	not failed
MSLKITDVDVWVVNLPLVNPFTSSFETKTGETRTVVRVRTDSGVEGWGETMWGAPVAAIVRRMAPDLIGTSPFALEAFHRKQHMVPFFYGYLGYAAIAAVDVACWDAMGKATGQSVTDLLGGAVRDEVPITALITRADAPGATPADLPKAMAEHAVRVVEEGGFDAVKLKGTTDCAGDVAILRAVREALPGVNLRVDPNAAWSVPDSVRAGIALEELDLEYLEDPCVGIEGMAQVKAKVRIPLCTNMCVVRFEDFAPAMRLNAVDVIHGDVYKWGGIAATKALAAHCETFGLGMNLHSGGELGIATAAHLAVVSSTPVLSRAIDSMYYLHADDIIEPLHLENGRLRVPSGPGLGVSVDEDKLRHYAGVNERDGDLTGEGHHHHHH	not failed
MENLLARLLFAQWFPGLIQLKNYQKEWLVNDFRAAFSVVAVALPVAIAYAQLTGVSAIVGLYSCVLPMLVYALMGTSRQLIVGPDAATCAVIAAVVTPIAAGDPTKHWQLVMTMTAMTGIWCVLASRFKLGIFADFLSRPILLGLLNGVALTIIVGQFAKVVGLKYEQRYLLERLWEAPQRLAELHWPTVALSVATVVVYLVTKRYRPTWPAAMLAILVTTASVWLLHLQEMDVAVVGLTQGGFPQFQAPQFELGEVRELVVPALNLAIVSFVSMMLTARSFAAKNGYDIDANKEFQALGFANIASAFSQGFAISGADSRTAVNDANGGKSQLVSIVAAITIAIIAVFIYEPLQFIPIASLGVVLIIASLSLLDLKAIWILKTRDKDAFYLAIITFISVLVIGVIPGITLAVLLGLFQFLRIVMRPSDQLLGLDEKGTIRTIDETGKASPIPGMVIYRFNSPLTYFNAPYFKRRLLEHAEQNKDVSCVVVDAVSSFTHLDLSVMATLADIHEVLKKRGIRLVLAGRKRRLRQWCELTGISTSEGGILLRADMYLAIKLSGSYLSAVGEGIVPTVQKEPDLEQPPKPIPEVA	failed
PSGATGKDGLAIPVGKDTAKSSLTVWEDFRCPACKIFETTYRPTLHELVGAGKLKIDYHLVTIIDDGRGGSGSRQAANAAACAQDAGKFTAYHDVLYDNQPDETVDSFADDSKLIELAGKVDGLDTPAFRKCVKDGTHNSWVVKSNAAFDSGGFKGTPTVLFGGKNLAADPTMTPAKLKQMVEAANK	failed
MSKRSEVLEQFHGGLKNLELQTKRRMGLWGDPKENEEQTLFLEEIENELKQLENKENLKADNNTEFKEENQDTKENQPNDLFSLPLPTQTTINGIKEFVEEPVIETEKKETSQNEPIQEKKERIFKNFFSRIGFDKSIAPTMLFEEVRDASVIYHLEKKLGDYIFYVACFFFGTTALLIILLTILLPLKQKEPYLVQFSNNKENFALVQKADSSITANKALIRSLVGAYVLNRESITHIEQHEKMRQNTIKEQSSNEVWYEFEKLIAHYDSIYTNPLLTRKVKIANIYLDKDLAYIDIEVSLYHSGELESLKRYKVVMSFEFKKQEINFDSMSLNPTGFMVTSYDVTEIAIVNYPTAKAIGLFLAS	failed
MTSVLEKRHAPKQRAEAQRALTGEDFVGDEAPGKDLPSRPRLDPAEFIKANMGLVPVLALPEIRFYTAHPGSGLRRLVDPEDDADADDDTPEPQPPYWAYAWAGGAVLARHILNHPKTVAGRRVLDLGAGSGIVGIAAAKAGASEVIAAEIDRNGVAAIGLNAAANGVEITIVHQDITMGSPPAVDLVLAGDVFYGREVALRVIPFLDRCLAAGIEVLVGDPRRHDLPLSRLRLLAEYQVPDFGDAKDAALKPSGVFRFEAETAPALAGAIKPSP	failed
MTLRTRITLLTAGLLLVAFLVLGFALEGLLRNFLYGSLRTDLKEAANQVVRLLNLGGQALLEAGLPPSLYAEVQLLPEEDPALLAREGGISLQKSPALGSQRLLLQEEAYRELLKRGEVWAYAELPREGHPLRLLVYARKVEVNLSGSVWKGALLVGRPTEDLEATLSQFARIYAGTALFVLLLSLFLARGLVARALEPLEWAARKAEAMSARPEPLPEPETRDEVAALVKALNGMLTRLQEAFEAQTRFLQDASHELRTPITAILGHVGYLLRRTPLTEAQRESLEVVKREAERMGKLVSDLLDLSQSGTWRIRPVPVRVLDLLEEVREEFAKSFDGAILVEAPEDLYVLGDPDRLHQVMANLVSNALKAGARHVWLRAFDLGDKAVVRVEDDGEGIPEEHLPHLFERFYRVDKARDRERGGSGLGLAIVKAILEAHGGEVWVESQVGKGTAFSFSLPASGPPPPPR	failed
MARVAIPSVGKDLSSMVSDRFARAEYFIIYDTESGNVEVVENTIADAHGTGPKVVQSLVSKGVEYLIASNVGRNAFETLKAAGVKVYRFEGGTVQEAIDAFSEGRLEELTTFTREG	not failed
ESILANLSAGVIAFSGDWHIRAANTSASRILGVDFSQLAEHRFPEWGGVMPAVASLVETVMQHADSDVESDWQTQLGYDTAQGERTLLVRGARLPEHSSDGYVLVFNDITE	failed
MQDKNFDKLAQKFAKNIYGTPKGEIRAAVLWRDLAPALAQFGDKKLRILDAGGGFGYFSQKLARLGHEVVLCDISAEMLAQAKEQIDASDTPLAIRLVHAPIQALSITEHGMFDLILCHAVVEWLADAKTTMEGLLTMLKPNGLFSLMFYNKEAMRFHALVSGNFDYVAADLKVKKKVRLTPTHPLYIHEVKLWFAQWQMALLKESGVRVIHDYLKKQQAADFDYQKLLSMELEYSQREPYISLGRYVHFLGQSTATHSELEHHHHHH	not failed
MNKQIDLPIADVQGSLDTRHIAIDRVGIKAIRHPVVVADKGGGSQHTVAQFNMYVNLPHNFKGTHMSRFVEILNSHEREISVESFEEILRSMVSRLESDSGHIEMAFPYFINKSAPVSGVKSLLDYEVTFIGEIKHGNQYSFTMKVIVPVTSLCPCSKKISDYGAHNQRSHVTISVRTNSFIWIEDIIRIAEEQASCELYGLLKRPDEKYVTERAYNNPKFVEDIVRDVAEVLNHDDRIDAYIVESENFESIHNHSAYALIERDKRIR	not failed
MNIIIATTKSWNIKNAQKFKKENESKYNTTIITNKDELTFEKVKLINPEYILFPHWSWIIPKEIFENFTCVVFHMTDLPFGRGGSPLQNLIERGIKKTKISAIKVDGGIDTGDIFFKRDLDLYGTAEEIFMRASKIIFNDMIPELLTKRPVPQKQEGEATVFQRRKPEQSEISPDFDLEKIYDYIRMLDGEGYPRAFIKYGKYRLEFSRASMKNGKIIADVEIIEGDENE	not failed
HALGAPVLRVEGLSQAGHFRNVSFEVRAGEVLGITGLLGSGVKELVECLFGLEQPDAGSVTIDGEVRRFANPGRAVQGRVALVPEDRRAHGVATDMSVRDNITIASLERYMTRGFVSRARENEAVDGFIRELSIKTPHRDQLVRNLSGGNQQKVALAKWLSCQSRVYVLDEPTVAVDVGAKVEIYTLLNRLAAEGAAILFLSSDLLEIAGFCDRALVVYRGTLNGEFAGETLDSDLLLAAASGARAQRKEA	failed
MLASVRVNQLQRLLLSARRLSSSPIIPPSRLLHQRLFSTSDTDASAASFSSSHPKIQTLEGKASNKSRSTSSTTSLNEDELAKFSAIADTWWHSEGPFKPLHQMNPTRLAFIRSTLCRHFSKDPSSAKPFEGLKFIDIGCGGGLLSEPLARMGATVTGVDAVDKNVKIARLHADMDPVTSTIEYLCTTAEKLADEGRKFDAVLSLEVIEHVANPAEFCKSLSALTIPNGATVLSTINRTMRAYASTIVGAEYILRWLPKGTHQWSSFVTPEEMSMILQRASVDVKEIAGFVYNPITGRWLLSDDISVNYIAYGTKRKDLGDI	failed

Source: a protein production outcome set (Wang et al. 2014)
